How the values were obtained:
[1] = molecular target: T1, rHuman CD44/Fc Chimera, CF (Cat# 3660-CD) (human, UniProt P16070 21-220); test: Multispot ECL; Fab 8.1 nM
T1 construct: Bought from R&D Systems
Description: (§1) An 150 μl aliquot of 1% Bovine Serum Albumin (BSA) in Tris-buffered Saline Tween (TBST) was added to each well and allowed to incubate for 30 min at 20° C. followed by washing and tap drying to completely remove any residual solution. Subsequently, a 12.5 μl aliquot of 1% BSA TBST was added to each well followed by the addition of a 12.5 μl aliquot of a purified Fab. The plate was sealed and incubated for 1 hour at 20° C. with shaking.
(§2) Detection antibodies were prepared by individually conjugating both goat anti-human Kappa light chain polyclonal antibody (K3502-1MG, Sigma-Aldrich) and goat anti-human Lambda light chain polyclonal antibody (L1645-1 mL, Sigma-Aldrich) with Ruthenium (II) tris-bipyridine-(4-methylsulfone)-N-hydroxysuccinimide (SULFO-TAG NHS-ester, Meso Scale Discovery) according to the manufacturer's instructions. TAG-detection antibody at 25 μl was added to each well and allowed to incubate for 1 hour at 20° C. with shaking. Finally, 15 μl of Read Buffer P with Surfactant (Cat # R92PC-1, Meso Scale Discovery) was added to each well. The electrochemiluminescence was measured using a Sector Imager 2400 (Meso Scale Discovery). Data was analyzed by comparing the ECL signals for an antigen to the blank of each well. A signal to blank ratio of 4 or more was considered a “Hit” Fab.
(§3) To confirm a “Hit” from the initial Multispot ECL screening, a Fab concentration dependent titration was carried out to determine the Fab-antigen binding affinity.

[2] = molecular target: T2, rHuman IGF-1 sR, (IGF-1 sR), CF (Cat# 391-GR) (human, UniProt P08069 31-932); test: Multispot ECL; Fab 8.1 nM
T2 construct: Bought from R&D Systems; also called insulin-like growth factor-1 soluble receptor
Description: as §1, §2, §3

[3] = molecular target: T3, rHuman ErbB2/Fc Chimera, CF (Cat# 1129-ER) (human, UniProt P04626 23-652); test: Multispot ECL; Fab 8.1 nM
T3 construct: Bought from R&D Systems; also called human epidermal growth factor 2 receptor (ErbB2)
Description: as §1, §2, §3

[4] = molecular target: T4, rHuman Erythropoietin R/Fc Chimera, CF (Cat# 963-ER) (human, UniProt P19235 25-250); test: Multispot ECL; Fab 8.1 nM
T4 construct: Bought from R&D Systems; also called EPO R/Fc; Epo R/Fc chimera
T4 sequence (looked up): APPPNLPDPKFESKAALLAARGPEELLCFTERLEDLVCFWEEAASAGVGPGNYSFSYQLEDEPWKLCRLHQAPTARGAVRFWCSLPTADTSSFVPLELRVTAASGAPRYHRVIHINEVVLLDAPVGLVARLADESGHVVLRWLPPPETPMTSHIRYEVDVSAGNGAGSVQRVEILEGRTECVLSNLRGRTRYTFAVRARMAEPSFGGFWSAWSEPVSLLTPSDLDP
Description: as §1, §2, §3

[5] = molecular target: T5, rHuman EGF R/Fc Chimera, CF (Cat# 344-ER) (human, UniProt P00533 25-645); test: Multispot ECL; Fab 8.1 nM
T5 construct: Bought from R&D Systems; also called epidermal growth factor receptor (EGF R)
Description: as §1, §2, §3

[6] = molecular target: T6, rHuman HGF R/c-MET/Fc Chimera, CF (Cat# 358-MT/CF) (human, UniProt P08581 25-932); test: Multispot ECL; Fab 8.1 nM
T6 construct: Bought from R&D Systems; also called HGF R/Fc; hepatocyte growth factor receptor (HGF R/c-Met)
Description: as §1, §2, §3

[7] = molecular target: T7, rHuman Notch-1/Fc Chimera, CF (Cat# 3647-TK) (human, UniProt P46531 19-526); test: Multispot ECL; Fab 8.1 nM
T7 construct: Bought from R&D Systems
Description: as §1, §2, §3

[8] = molecular target: T8, Recombinant Human DLL4 (Cat# 1506-D4/CF) (human, UniProt Q9NR61 27-529); test: Multispot ECL; Fab 8.1 nM
T8 construct: Bought from R&D Systems; also called rHuman DLL4; hDLL4
Description: as §1, §2, §3

[9] = molecular target: T1, rHuman CD44/Fc Chimera, CF (Cat# …); test: Multispot ECL; Fab 2.0 nM
Description: as §1, §2, §3

[10] = molecular target: T3, rHuman ErbB2/Fc Chimera, CF (Cat# …); test: Multispot ECL; Fab 2.0 nM
Description: as §1, §2, §3

[11] = molecular target: T5, rHuman EGF R/Fc Chimera, CF (Cat# …); test: Multispot ECL; Fab 2.0 nM
Description: as §1, §2, §3

[12] = molecular target: T1, rHuman CD44/Fc Chimera, CF (Cat# …); test: Multispot ECL; Fab 32.5 nM
Description: as §1, §2, §3

[13] = molecular target: T2, rHuman IGF-1 sR, (IGF-1 sR), CF (Cat# …); test: Multispot ECL; Fab 32.5 nM
Description: as §1, §2, §3

[14] = molecular target: T3, rHuman ErbB2/Fc Chimera, CF (Cat# …); test: Multispot ECL; Fab 32.5 nM
Description: as §1, §2, §3

[15] = molecular target: T4, rHuman Erythropoietin R/Fc Chimera, CF …; test: Multispot ECL; Fab 32.5 nM
Description: as §1, §2, §3

[16] = molecular target: T5, rHuman EGF R/Fc Chimera, CF (Cat# …); test: Multispot ECL; Fab 32.5 nM
Description: as §1, §2, §3

[17] = molecular target: T6, rHuman HGF R/c-MET/Fc Chimera, CF (Cat# …); test: Multispot ECL; Fab 32.5 nM
Description: as §1, §2, §3

[18] = molecular target: T7, rHuman Notch-1/Fc Chimera, CF (Cat# …); test: Multispot ECL; Fab 32.5 nM
Description: as §1, §2, §3

[19] = molecular target: T8, Recombinant Human DLL4 (Cat# 1506-D4/CF); test: Multispot ECL; Fab 32.5 nM
Description: as §1, §2, §3

B1: Fab VH1-8_IGHD2-2*01_IGHJ6*01 & L12_IGKJ1*01 (Fab, V domains shown)
VH: QVQLVQSGAEVKKPGASVKVSCKASGYTFTSYDINWVRQATGQGLEWMGWMNPNSGNTGYAQKFQGRVTMTRNTSISTAYMELSSLRSEDTAVYYCARGGYCSSTSCYADYYYYYGMDVWGQGTTVTVSS
VL: not shown
ECL signal [1]: 528 | ECL signal [2]: 518 | ECL signal [3]: 557 | ECL signal [4]: 660 | ECL signal [5]: 560 | ECL signal [6]: 551 | ECL signal [7]: 612 | ECL signal [8]: 1550 | ECL signal [9]: 447 | ECL signal [10]: 382 | ECL signal [11]: 424 | ECL signal [12]: 573 | ECL signal [13]: 561 | ECL signal [14]: 556 | ECL signal [15]: 673 | ECL signal [16]: 645 | ECL signal [17]: 525 | ECL signal [18]: 706 | ECL signal [19]: 2990
